The DeepSol protein solubility set

Assay: soluble on expression in E. coli; label from the status in PepcDB or PDB records

Row | Sequence | soluble on expression in E. coli
1 | SNAMKTEKDKMLAGEMYIADDEELVADRVEAKRLTRLYNEAVETGDERRFTLLNQLLGSSADGKAQINPDFRCDYGYNIHVGKSFFANFNCVILDVCEVRIGDHCMFAPGVHIYTATHPLHPVERNSGKEYGKPVKIGNNVWVGGGAIINPGVSIGDNAVIASGAVVTKDVPNNVVVGGNPAKVIKTIEE | soluble
2 | MGSDKIHHHHHHMLNNYMSILSLNENDNDIKSLTKARPLASIPIAGRYRIIDFILSNLVNSGVKNIGILTQCKSRSLLDHLGSGKPWDLDRKLNGLFIFNFSGITSTLSDIEMLKSNMEYLYRSTQEKVILSSSAVICNIDFQRAAEFHEKSGKDITLIYKRTNNGKRKFLNCSVLNMDKNNNVISIGKNTGLDDVQNISLGMFIMNKKLLINILNNCIRTGFSLSLKQCIRKHMNNFTVNAYEFNGYAEYIDSVKSYYKVNMDMLNLDINREVFFKNGLIYTKVKDEAPTKYFNDSEVCNSLIANGSLIHGQIENSIIGRRVTISKGARIKNCVIMQNCTIKENVDLTNVIVDKNVIIDENTVLKGGKEFPLVIEKKSIYSEV | not soluble
3 | MRAQMKQYNCHEGALPFTKSYLLRPLFNAFLMSPKPFHTTEACIGCKKCEKVCPVGNITVTDRPVWGGNCTQCLACYHVCPVHAVEYGKMTGLEHHHHHH | not soluble
4 | MAHHHHHHMSLNLTDAADDRSYKEMEKYTVERVAGQGTFGTVQLARDKSTGSLVAIKKVIQDPRFKNRELQIMQHLARLRHPNIVMLKNYFYTVGGEGRRNDVYLNVVMEFVPETLHRTCRNYYRRMTNPPLILVKVFMFQLLRSIACLHIPVINICHRDIKPHNVLVDEQTGELKLCDFGSAKRLAADEPNVAYICSRYYRAPELIFGNQFYTTAVDIWSVGCIFAEMLLGEPIFCGENTSGQLREIVKILGKPTKEELHKLNGSSTEINANAKATPWENVFKQPLPAEVYDLCGKIFKYVPDQRITPLDALCHPFFNELREPTTKLPSGNPLPAHLYQFTPDEVEAMTEAQREYLLKK | not soluble
5 | MLKGIPKIIPPELLKVLCEMGHGDQLVIADGNFPAESIGKNAIVVRMDGHGGGEILKAILTVFPLDTYVDKPATLMEKVPGDTVATPIWDVYAGLIKEHDERGADAIGSLERFAFYEQAKNAYCVIASGESAQYANLILQKGVVFNAE | soluble
6 | MEKMHITNQEHDAFVKSHPNGDLLQLTKWAETKKLTGWYARRIAVGRDGEVQGVAQLLFKKVPKLPYTLCYISRGFVVDYSNKEALNALLDSAKEIAKAEKAYAIKIDPDVEVDKGTDALQNLKALGFKHKGFKEGLSKDYIQPRMTMITPIDKNDDELLNSFERRNRSKVRLALKRGTTVERSDREGLKTFAELMKITGERDGFLTRDISYFENIYDALHEDGDAELFLVKLDPKENIAKVNQELNELHAEIAKWQQKMETSEKQAKKAQNMINDAQNKIAKNEDLKRDLEALEKEHPEGIYLSGALLMFAGSKSYYLYGASSNEFRDFLPNHHMQYTMMKYAREHGATTYDFGGTDNDPDKDSEHYGLWAFKKVWGTYLSEKIGEFDYILNQPLYQLIEQVKPRLTKAKIKISRKLKRK | not soluble
7 | MNKKMIFFDIDGTIVDEKTHVIPEGTIAAIKKARSNGHLVFINTGRTFFNVPDSIRQIGFDGYVCGCGTYIHINGQTLLEKSISHKRCVEIVEKLRECKLDALLEGQKDFFFDQREPVSEKTLELKSKFGKRGYDVSKSWDDSDIVFDKFVIWTRKESNLEAFKSHISNDFDYIDREDEEGEFGEIVLKGYSKATGIKFLQDYFNIPIEDCYALGDSLNDLPMLQYVPNSIAMGNSSKGLFDLVAFVTKDIMEDGIEYALKHYNII | not soluble
8 | MQAGKPILYSYFRSSCSWRVRIALALKGIDYKTVPINLIKDGGQQFSKDFQALNPMKQVPTLKIDGITIHQSLAIIEYLEETRPTPRLLPQDPKKRASVRMISDLIAGGIQPLQNLSVLKQVGEEMQLTWAQNAITCGFNALEQILQSTAGIYCVGDEVTMADLCLVPQVANAERFKVDLTPYPTISSINKRLLVLEAFQVSHPCRQPDTPTELRA | soluble
9 | MGSDKIHHHHHHMIKICSVAFLSLLLSASSLFAQTKTFAGADYSQGIVFVMENNQMVWKHKAPDSNDLWILPNGNILFTTGHGVLEMTRQNDTIFHYESKSPVFACQRLKNGNTFVGECVTGRMLEISPKGKIVKETCILPKGVKDGGFAFMRNARRLDNGHFLVAHYGDQCVKEYDANGKVVWKLDVPGGPHSLTRLPNGHTLIAVADKDQNPRLIEVTPEGKTIWEISNADIPGKPLKFLGGFQYFSDGRFLITNWTGHVNPKEKVHLLLVDRQKNVLYSLENTPELQTMSSVYSTDKPAGVASYH | not soluble
10 | GSKFLNKRLSEREFDPDIHCGVIDLDTKKPCTRSLTCKTHSLTQRRAVQGRRKRFDVLLAEHKNKTREKELIRH | soluble
11 | MAHHHHHHMRHMCVTLKRRACTVSFSPFLMSYFQSMLMPYRDSVRSSKSDKASSRTVNEEAKVSLSAFSFLFSEMCTRAHNTPSKASNVEEIEQRLTSLGVLVGARLIMLSSLKDPLELQRRPITIEGALKLFQDKLWSRWFGKPANDLQRETGSDRFFIFDTEPIVLRYVYPSPEYLDGEGRWSINYASFMGGIVEGALKAIGFAAEVLTYHQPEPSKPHQSIFAISFAKHVWDRERRLRG | not soluble
12 | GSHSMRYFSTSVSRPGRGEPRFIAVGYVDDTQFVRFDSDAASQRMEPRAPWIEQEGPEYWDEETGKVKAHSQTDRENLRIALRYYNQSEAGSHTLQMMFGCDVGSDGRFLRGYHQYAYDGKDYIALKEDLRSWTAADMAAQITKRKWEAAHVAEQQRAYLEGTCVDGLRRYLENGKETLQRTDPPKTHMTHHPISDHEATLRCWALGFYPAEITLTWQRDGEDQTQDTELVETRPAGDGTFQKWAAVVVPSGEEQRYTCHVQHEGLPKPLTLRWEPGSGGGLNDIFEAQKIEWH | soluble
13 | NSSAQLLELCTEHGLSISSLMMANELSLASEEEVKAKLWNIWQTMKTCIERGYQKEGILPGGLKLRRRAPALYRRLKAEGRNNVDPLTAMDWVDLFALSVNEQNAAGDRVVTAPTNGAAGIIPAVLCYYDTFVQEVDIDVCARYLLTAAAIGILYKKNASISGAEVGCQGEVGVACSMAAGALTEIMGGTVEHVENAAEIGMEHNLGLTCDPVGGLVQVPCIERNAMGAIKAINASRMALRGDGNHKVSLDKVIKTMMDTGKDMRSKYKETAKGGLAVN | not soluble
14 | MSLKEVDLTQEQMKDLNLTYDWYRSYDNAKLNEFLNFVLLNNSDINIARKTLLSALARADLIDYDLYPTLSGNLGFGADKDLNSGKQSKNFNNSLNLSYELDIYGKLRDSASASEFSAKASAYDLENLKISMINTALNDVFELAYFNDVDKLLRAYLSNLEQMKELYNYKYKLGKIEELDLLNIEQSLLRAKQNLLSNDQNRNLLIKNLQDLLARQEGFAYIEYFKTLSLNDFKTLSPDFNIPLKALAYRADVRSKLNSLKSAFKDYSSMQKSILPSISLGGALSGSDKKIDDSFKFEILSGNVKISLPFLDYGRVKQNIKISQFAYEQLLISYEQVLQSAMNEFALNYKDYQSDTLLLQNLQNINIKQELITKAYYEKYILGKSELKDYLDANNTLNSTQQEFLRARFNLLKTINSYYQITALSFNNENLEFPKEGHHHHHH | soluble
15 | MGSDKIHHHHHHMTTPSETSPSRMNSTQAWVSYLSKVELPVLANTLRQINELTDSRNSTVNELANVILNDAQLTSQVLRLSNTVFYNQTRTQVSTVSRAITLIGFDAVKSMAISSLIVDSLLKRNDRPHLLRCLARAIHAAVQARCLMPKRTEHALEEVFIGALLMNIGELAFWSCETEQASELEERLRLEEPPVEAQKAVLHTTFTEITRGLVDAWSLGPFIKEVVAPGKANSMASSLVRNSVEMARVSENGWSGAEMDKVLEKLSDDIGETPAAIRDQLKVNAQEASKVAVSLGIPQVTALLPGNQESVPDAPAMDSDLQLQILRELTQTLAEKPDINEVCQLVIEGIHRAIGMQRVALLMTDRSGELLVPRKVGGRGTEEWREHFVIKKDGTGPLGPLLPHGTCAVYEPRKQTEGVPYDRWLGKVPALAGSLKAKGRLVGLFYADNAAAGYVPSEQQLAAFGHFIQNAQLCLTLMSARG | not soluble
